{"source": "patent US20220275069", "test_system": "T1, Recombinant gasdermin D (rGSDMD), full-length", "T1 sequence": "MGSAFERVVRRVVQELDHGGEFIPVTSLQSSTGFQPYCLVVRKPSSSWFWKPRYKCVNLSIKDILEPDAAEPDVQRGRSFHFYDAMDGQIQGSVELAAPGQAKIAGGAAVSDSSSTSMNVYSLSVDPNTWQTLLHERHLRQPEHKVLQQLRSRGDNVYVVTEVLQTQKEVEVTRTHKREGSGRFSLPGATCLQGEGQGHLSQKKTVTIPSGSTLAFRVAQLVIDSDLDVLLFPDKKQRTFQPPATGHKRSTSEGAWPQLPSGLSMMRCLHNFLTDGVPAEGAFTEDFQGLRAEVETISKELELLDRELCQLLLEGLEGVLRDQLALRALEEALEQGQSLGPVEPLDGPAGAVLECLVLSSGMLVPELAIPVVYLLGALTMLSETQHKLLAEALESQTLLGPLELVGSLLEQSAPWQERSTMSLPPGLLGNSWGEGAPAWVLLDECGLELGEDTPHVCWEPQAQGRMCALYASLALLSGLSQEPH", "data": [{"substance": "Recombinant caspase-1", "values": [{"measurement": "cleavage of recombinant gasdermin D (1 hour at 37 C, SDS-PAGE and protein stain)", "value": "resulted in the formation of a ~31 kDa N-terminal domain and ~22 kDa C-terminal domain"}]}]}
